Earlier results in paper PMC6200408.

Target: cubilin (Homo sapiens) (UniProt O60494)
Sequence of UniProt O60494 (O60494 36-3623): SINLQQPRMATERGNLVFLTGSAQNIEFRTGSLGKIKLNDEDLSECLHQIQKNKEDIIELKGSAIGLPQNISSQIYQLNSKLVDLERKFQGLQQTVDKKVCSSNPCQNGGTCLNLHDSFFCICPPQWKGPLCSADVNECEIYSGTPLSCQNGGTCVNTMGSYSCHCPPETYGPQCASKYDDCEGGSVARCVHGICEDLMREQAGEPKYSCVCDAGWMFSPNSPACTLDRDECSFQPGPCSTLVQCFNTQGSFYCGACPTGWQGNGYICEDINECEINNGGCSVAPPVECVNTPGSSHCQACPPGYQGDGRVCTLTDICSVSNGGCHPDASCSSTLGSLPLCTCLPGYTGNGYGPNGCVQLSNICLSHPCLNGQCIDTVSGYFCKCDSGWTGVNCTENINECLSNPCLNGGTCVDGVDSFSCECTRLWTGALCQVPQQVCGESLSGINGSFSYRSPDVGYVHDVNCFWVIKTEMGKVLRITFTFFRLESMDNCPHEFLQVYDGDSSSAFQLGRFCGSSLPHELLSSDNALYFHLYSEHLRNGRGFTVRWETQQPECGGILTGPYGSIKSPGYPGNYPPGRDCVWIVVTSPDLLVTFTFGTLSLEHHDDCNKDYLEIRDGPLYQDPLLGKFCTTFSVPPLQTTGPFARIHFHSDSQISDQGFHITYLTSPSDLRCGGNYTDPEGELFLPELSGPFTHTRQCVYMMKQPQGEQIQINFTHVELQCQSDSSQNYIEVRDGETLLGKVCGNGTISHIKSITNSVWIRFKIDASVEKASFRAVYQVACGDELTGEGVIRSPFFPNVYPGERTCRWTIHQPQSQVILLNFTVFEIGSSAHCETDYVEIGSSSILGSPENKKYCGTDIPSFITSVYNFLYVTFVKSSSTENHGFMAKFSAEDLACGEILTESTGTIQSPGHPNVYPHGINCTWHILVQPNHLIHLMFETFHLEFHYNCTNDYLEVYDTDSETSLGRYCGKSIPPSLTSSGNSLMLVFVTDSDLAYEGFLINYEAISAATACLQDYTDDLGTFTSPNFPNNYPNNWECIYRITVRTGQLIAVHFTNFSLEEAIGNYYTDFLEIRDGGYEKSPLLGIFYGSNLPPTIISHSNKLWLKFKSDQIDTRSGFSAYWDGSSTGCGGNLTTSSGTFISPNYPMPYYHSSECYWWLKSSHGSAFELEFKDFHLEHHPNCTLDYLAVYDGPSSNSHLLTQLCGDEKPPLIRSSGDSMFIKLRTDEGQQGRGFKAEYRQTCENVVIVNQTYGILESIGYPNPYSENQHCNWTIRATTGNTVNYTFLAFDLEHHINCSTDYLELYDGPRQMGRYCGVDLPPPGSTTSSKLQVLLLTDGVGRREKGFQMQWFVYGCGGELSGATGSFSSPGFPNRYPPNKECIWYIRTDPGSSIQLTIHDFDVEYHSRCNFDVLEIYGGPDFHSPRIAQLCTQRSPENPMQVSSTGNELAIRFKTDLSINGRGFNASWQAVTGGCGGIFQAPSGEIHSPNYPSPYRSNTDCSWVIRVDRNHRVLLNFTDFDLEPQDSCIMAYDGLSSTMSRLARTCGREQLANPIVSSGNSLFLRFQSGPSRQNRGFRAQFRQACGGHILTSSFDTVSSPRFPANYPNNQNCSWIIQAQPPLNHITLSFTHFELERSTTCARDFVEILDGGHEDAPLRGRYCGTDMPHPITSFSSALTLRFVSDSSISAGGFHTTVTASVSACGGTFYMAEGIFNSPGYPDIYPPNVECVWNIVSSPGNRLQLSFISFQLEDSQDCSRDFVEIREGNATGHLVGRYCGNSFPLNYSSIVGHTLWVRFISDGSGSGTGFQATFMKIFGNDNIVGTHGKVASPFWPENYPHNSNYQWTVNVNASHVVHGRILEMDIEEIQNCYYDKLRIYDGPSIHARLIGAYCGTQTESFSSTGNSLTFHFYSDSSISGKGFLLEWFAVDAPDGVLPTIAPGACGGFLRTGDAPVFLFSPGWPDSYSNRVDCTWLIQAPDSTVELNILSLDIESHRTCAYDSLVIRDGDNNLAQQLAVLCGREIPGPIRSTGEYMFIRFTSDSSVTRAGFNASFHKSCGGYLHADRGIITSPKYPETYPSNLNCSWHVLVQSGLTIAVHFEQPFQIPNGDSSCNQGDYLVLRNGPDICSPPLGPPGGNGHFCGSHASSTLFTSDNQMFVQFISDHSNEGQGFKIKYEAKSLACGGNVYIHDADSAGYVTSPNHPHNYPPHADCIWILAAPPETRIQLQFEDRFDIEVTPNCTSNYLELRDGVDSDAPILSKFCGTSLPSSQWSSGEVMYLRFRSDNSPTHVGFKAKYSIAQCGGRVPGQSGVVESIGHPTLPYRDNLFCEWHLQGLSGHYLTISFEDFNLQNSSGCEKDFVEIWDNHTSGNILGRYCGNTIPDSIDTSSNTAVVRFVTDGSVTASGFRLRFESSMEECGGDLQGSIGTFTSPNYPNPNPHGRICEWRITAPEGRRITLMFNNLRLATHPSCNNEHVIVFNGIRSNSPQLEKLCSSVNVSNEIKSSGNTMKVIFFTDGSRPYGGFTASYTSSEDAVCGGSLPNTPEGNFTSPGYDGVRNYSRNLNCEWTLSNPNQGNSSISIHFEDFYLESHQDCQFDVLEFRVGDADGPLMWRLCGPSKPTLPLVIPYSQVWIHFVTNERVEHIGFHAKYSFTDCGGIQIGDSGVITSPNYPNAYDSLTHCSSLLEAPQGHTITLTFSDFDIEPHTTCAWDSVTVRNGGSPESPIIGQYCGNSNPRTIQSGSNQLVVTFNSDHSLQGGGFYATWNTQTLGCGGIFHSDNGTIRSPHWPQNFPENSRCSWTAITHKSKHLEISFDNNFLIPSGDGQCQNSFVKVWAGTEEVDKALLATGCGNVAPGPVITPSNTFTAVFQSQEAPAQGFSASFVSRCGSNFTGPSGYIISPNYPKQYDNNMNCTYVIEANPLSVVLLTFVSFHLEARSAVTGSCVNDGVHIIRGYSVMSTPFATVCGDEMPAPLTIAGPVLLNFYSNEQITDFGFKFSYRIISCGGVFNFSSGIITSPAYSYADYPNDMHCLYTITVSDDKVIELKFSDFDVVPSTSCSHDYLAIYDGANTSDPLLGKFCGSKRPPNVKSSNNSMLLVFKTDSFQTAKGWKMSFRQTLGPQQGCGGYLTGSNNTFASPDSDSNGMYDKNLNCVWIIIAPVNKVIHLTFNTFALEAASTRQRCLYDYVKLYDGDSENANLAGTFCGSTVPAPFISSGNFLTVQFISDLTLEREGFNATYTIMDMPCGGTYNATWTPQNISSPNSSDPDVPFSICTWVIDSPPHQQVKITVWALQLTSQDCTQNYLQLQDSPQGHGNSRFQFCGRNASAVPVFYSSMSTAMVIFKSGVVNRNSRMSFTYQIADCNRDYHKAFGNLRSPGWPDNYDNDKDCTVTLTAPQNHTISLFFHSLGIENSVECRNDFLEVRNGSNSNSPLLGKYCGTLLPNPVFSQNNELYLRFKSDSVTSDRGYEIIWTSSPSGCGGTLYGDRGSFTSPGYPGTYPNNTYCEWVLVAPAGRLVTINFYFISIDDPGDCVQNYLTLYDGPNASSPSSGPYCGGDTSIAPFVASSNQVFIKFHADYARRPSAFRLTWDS

Kd: 0.6 pM
Substance: albumin (from UniProt P02768)
